Measured values as given in the supplement of paper PMC10126150.
± gives the standard deviation of the averaged measurements.

System: ATP
Assay: switch fluorescence ratio, 500 uM ATP over buffer (Cy3 cluster intensity, sum of 5 cycles each) (fold (ratio)); higher = stronger signal-on switching upon ATP binding; sequences stand for … in TCGTCGGCAGCGTCAGATGTGTATAAGAGACAGTTTTTTTTTTTTTTTTTTTTTTTTT…TC
Settings: aptamer strand: ATP DNA aptamer (quencher-CACCTGGGGGAGTATTGCGGAGGAAGG + anchor), 100 nM annealed; ATP concentration: 500 uM
How it was run: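 Switching-strand clusters labelled with Cy3 on a modified Illumina MiSeq flow-cell were annealed to 100 nM quencher-labelled ATP aptamer, imaged in selection buffer, and re-imaged after 15 min with 500 uM ATP at 22 °C. This was done over five cycles with NaOH stripping and re-annealing in between. The fluorescence ratio is summed target-cycle over summed buffer-cycle Cy3 intensity per cluster, averaged per switch-domain sequence, excluding clusters outside 100-1000 RFU.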
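Further: ATP exposure 15 min at 22 °C before imaging.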

Sequence | switch fluorescence ratio
TTAAAGGGAT | 1.1 ± 0.16
TTAAAGGGC | 0.973 ± 0.08
TTAAAGGGGT | 1.05 ± 0.1
TTAAAGGTTA | 0.989 ± 0.013
TTAAAGTAGT | 1.19 ± 0.32
TTAAAGTCGA | 1.0194 ± 0.00069
TTAAAGTTGC | 1.02 ± 0.038
TTAAAGTTGT | 1.03 ± 0.07
TTAAATAGGT | 0.9956 ± 0.0088
TTAAATATTT | 0.992 ± 0.022
TTAAATCATA | 0.99742 ± 0.00093
TTAAATGCCT | 1.07 ± 0.028
TTAAATGGGT | 1 ± 0.033
TTAAATTACC | 1.05 ± 0.032
TTAAATTGGG | 1.01 ± 0.018
TTAACAGGAA | 1.024 ± 0.0095
TTAACATACG | 1.38 ± 0.042
TTAACCGGGG | 1.13 ± 0.16
TTAACCGGTA | 1.02 ± 0.0039
TTAACGAACG | 1.15 ± 0.083
TTAACGCGTT | 1.0063 ± 0.00089
TTAACGGGTT | 1.02 ± 0.037
TTAACGGTCT | 1.04 ± 0.027
TTAACTAGAT | 1.02 ± 0.016
TTAACTAGGC | 0.989 ± 0.054

Sequence | switch fluorescence ratio
TTAACTAGGG | 0.974 ± 0.037
TTAACTGGGG | 1.11 ± 0.13
TTAACTTCGG | 0.9712 ± 0.0059
TTAACTTTCT | 1.058 ± 0.0094
TTAAGAACCT | 1.31 ± 0.13
TTAAGACCAC | 1.01 ± 0.012
TTAAGACGGG | 1.002 ± 0.0017
TTAAGACGGT | 1.03 ± 0.031
TTAAGAGAGG | 1.01 ± 0.013
TTAAGCAATT | 1.36 ± 0.047
TTAAGCACAT | 1.202 ± 0.011
TTAAGCCCTT | 1.04 ± 0.036
TTAAGCGAGC | 0.9657 ± 0.0024
TTAAGCTGTT | 1.01 ± 0.023
TTAAGCTTAT | 1.012 ± 0.006
TTAAGGAGCA | 1.05 ± 0.044
TTAAGGAGGA | 0.981 ± 0.03
TTAAGGATGT | 1 ± 0.014
TTAAGGCTAA | 1.03 ± 0.038
TTAAGGGTGG | 0.991 ± 0.021
TTAAGGGTTT | 1.01 ± 0.047
TTAAGGTCGG | 1 ± 0.012
TTAAGGTGAG | 1.02 ± 0.021
TTAAGGTTTA | 1.02 ± 0.038
TTAAGTACG | 1.22 ± 0.09

Sequence | switch fluorescence ratio
TTAAGTAGGC | 1.16 ± 0.19
TTAAGTATTT | 0.997 ± 0.055
TTAAGTCCGG | 0.9629 ± 0.0071
TTAAGTGCTA | 0.9897 ± 0.0067
TTAAGTGTAG | 1 ± 0.021
TTAATAAACT | 1.03 ± 0.051
TTAATAAGAC | 1.04 ± 0.054
TTAATAATGG | 0.979 ± 0.026
TTAATAGTCA | 1 ± 0.014
TTAATAGTTT | 0.988 ± 0.04
TTAATATTCT | 0.969 ± 0.065
TTAATCTACT | 1.01 ± 0.015
TTAATCTCGG | 0.9954 ± 0.0016
TTAATCTTAA | 0.972 ± 0.018
TTAATCTTTT | 1.06 ± 0.14
TTAATGCCGT | 1.05 ± 0.076
TTAATGCTAA | 0.99 ± 0.036
TTAATGGCGG | 0.995 ± 0.02
TTAATGGGTG | 1.05 ± 0.015
TTAATGTATT | 0.995 ± 0.016
TTAATTATAT | 1.02 ± 0.018
TTAATTGGTT | 0.997 ± 0.031
TTAATTTGAA | 0.997 ± 0.013
TTAATTTGCA | 1.01 ± 0.04
TTAATTTGGA | 1.014 ± 0.0088

Sequence | switch fluorescence ratio
TTAATTTTA | 1.014 ± 0.0011
TTAATTTTGT | 1 ± 0.012
TTACAAGCGA | 1.03 ± 0.019
TTACAATTTT | 0.985 ± 0.019
TTACACAAAA | 1 ± 0.033
TTACACCTTT | 1.02 ± 0.0085
TTACAGCATT | 1.07 ± 0.067
TTACAGTTAA | 1.01 ± 0.021
TTACAGTTTT | 0.9442 ± 0.0036
TTACATGGTA | 0.977 ± 0.0024
TTACATTTGG | 0.9846 ± 0.0036
TTACCAGTCT | 1 ± 0.046
TTACCCCAGT | 1.21 ± 0.036
TTACCGGACT | 1.11 ± 0.042
TTACCGGCGC | 1.14 ± 0.18
TTACCGGGAT | 1.02 ± 0.031
TTACCGTGGG | 1.05 ± 0.029
TTACCTTAGT | 1.06 ± 0.034
TTACGATGGG | 0.97086 ± 0.00075
TTACGGATAA | 1.49 ± 0.67
TTACGGATGG | 1.03 ± 0.065
TTACGGGCTC | 0.985 ± 0.058
TTACGGGGCA | 1.04 ± 0.019
TTACGGTGAA | 1.07 ± 0.072
TTACGGTTGG | 0.995 ± 0.025
